According to PMC4364042 (Science (New York, N.Y.), 2014):

B1: Dr β-catenin (natural protein, Danio rerio (zebrafish), UniProt F1QGH7 1-780, looked up)
chain: MATQSDLMELEMAMDPDRKAAVSHWQQQSYLDSGIHSGATTTAPSLSGKGNPEDDDVDNQVLYEWEQGFNQSFNQEQVADIDGQYAMTRAQRVRAAMFPETLDEGMQIPSTQFDSAHPTNVQRLAEPSQMLKHAVVNLINYQDDAELATRAIPELTKLLNDEDQVVVNKAAVMVHQLSKKEASRHAIMRSPQMVSAIVRTMQNTNDVETARCTSGTLHNLSHHREGLLAIFKSGGIPALVKMLGSPVDSVLFYAITTLHNLLLHQEGAKMAVRLAGGLQKMVALLNKTNVKFLAITTDCLQILAYGNQESKLIILASGGPQALVNIMRTYTYEKLLWTTSRVLKVLSVCSSNKPAIVEAGGMQALGLHLTDPSQRLVQNCLWTLRNLSDAATKQEGMEGLLGTLVQLLGSDDINVVTCAAGILSNLTCNNYKNKMMVCQVGGIEALVRTVLRAGDREDITEPAICALRHLTSRHQDAEMAQNAVRLHYGLPVVVKLLHPPSHWPLIKATVGLIRNLALCPANHAPLREQGAIPRLVQLLVRAHQDTQRRTSMGGTQQQFVEGVRMEEIVEGCTGALHILARDIHNRIVIRGLNTIPLFVQLLYSPIENIQRVAAGVLCELAQDKEAAEAIEAEGATAPLTELLHSRNEGVATYAAAVLFRMSEDKPQDYKKRLSVELTSSLFRTEPMTWNETGDLGLDIGAQGEPLGYRQDDPSYRSFHSGGYGQDAMGMDPMMEHEMAGHHPGPDYPVDGLPDLGHTQDLIDGLPPGDSNQLAWFDTDL

Assays:
[1] = target: E-cadherin/β-catenin complex (Mus musculus) (UniProt P09803); settings: cited from earlier work
Chain of E-cadherin/β-catenin complex (Mus musculus) (P09803 157-884, chain 1 of 2): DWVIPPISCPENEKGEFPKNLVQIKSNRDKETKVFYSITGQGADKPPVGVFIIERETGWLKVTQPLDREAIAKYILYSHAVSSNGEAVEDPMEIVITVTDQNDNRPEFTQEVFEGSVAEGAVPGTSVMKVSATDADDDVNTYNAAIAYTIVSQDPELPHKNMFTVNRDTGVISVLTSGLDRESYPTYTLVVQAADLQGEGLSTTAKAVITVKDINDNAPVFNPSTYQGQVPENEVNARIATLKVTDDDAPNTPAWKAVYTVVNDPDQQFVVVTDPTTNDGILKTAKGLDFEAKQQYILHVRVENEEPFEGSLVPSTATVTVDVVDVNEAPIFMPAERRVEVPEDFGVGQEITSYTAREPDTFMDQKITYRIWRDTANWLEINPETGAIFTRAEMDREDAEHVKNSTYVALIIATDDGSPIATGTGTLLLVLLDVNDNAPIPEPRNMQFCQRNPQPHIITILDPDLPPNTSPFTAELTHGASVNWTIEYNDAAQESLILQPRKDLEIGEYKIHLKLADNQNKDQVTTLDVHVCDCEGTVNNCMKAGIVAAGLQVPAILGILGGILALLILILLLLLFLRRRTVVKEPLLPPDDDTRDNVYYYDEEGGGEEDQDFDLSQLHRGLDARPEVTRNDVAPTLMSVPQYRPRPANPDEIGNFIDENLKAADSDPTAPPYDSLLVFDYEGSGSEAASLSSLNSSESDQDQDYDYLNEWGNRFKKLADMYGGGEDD
Chain of E-cadherin/β-catenin complex (Mus musculus) (Q02248 2-781, chain 2 of 2, further chain): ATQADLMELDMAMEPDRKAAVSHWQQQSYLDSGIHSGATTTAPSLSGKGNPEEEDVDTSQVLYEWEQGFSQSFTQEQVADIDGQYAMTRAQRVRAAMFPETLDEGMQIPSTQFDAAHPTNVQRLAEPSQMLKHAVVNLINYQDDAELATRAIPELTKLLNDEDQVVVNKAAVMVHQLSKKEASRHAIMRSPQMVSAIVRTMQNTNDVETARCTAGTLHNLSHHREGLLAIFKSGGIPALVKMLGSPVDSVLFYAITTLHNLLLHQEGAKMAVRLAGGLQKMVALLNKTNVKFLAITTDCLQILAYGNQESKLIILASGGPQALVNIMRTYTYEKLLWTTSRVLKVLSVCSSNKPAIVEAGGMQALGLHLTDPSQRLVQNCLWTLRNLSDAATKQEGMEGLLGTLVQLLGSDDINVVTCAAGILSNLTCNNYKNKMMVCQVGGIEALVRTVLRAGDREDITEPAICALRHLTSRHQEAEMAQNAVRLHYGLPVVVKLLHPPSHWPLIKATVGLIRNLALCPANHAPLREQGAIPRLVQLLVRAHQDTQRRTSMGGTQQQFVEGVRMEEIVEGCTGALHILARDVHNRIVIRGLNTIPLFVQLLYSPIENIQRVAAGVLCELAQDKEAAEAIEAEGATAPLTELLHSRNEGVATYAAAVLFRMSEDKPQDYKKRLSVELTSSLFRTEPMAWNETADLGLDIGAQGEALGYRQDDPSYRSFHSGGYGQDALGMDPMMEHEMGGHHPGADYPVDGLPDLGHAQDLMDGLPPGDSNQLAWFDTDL

[2] = target: T1, Dr αE-catenin (Danio rerio (zebrafish), UniProt Q9PVF8 1-907); experiment: reconstitution of the complex on the coverslip, read by optical trap
T1 sequence (looked up): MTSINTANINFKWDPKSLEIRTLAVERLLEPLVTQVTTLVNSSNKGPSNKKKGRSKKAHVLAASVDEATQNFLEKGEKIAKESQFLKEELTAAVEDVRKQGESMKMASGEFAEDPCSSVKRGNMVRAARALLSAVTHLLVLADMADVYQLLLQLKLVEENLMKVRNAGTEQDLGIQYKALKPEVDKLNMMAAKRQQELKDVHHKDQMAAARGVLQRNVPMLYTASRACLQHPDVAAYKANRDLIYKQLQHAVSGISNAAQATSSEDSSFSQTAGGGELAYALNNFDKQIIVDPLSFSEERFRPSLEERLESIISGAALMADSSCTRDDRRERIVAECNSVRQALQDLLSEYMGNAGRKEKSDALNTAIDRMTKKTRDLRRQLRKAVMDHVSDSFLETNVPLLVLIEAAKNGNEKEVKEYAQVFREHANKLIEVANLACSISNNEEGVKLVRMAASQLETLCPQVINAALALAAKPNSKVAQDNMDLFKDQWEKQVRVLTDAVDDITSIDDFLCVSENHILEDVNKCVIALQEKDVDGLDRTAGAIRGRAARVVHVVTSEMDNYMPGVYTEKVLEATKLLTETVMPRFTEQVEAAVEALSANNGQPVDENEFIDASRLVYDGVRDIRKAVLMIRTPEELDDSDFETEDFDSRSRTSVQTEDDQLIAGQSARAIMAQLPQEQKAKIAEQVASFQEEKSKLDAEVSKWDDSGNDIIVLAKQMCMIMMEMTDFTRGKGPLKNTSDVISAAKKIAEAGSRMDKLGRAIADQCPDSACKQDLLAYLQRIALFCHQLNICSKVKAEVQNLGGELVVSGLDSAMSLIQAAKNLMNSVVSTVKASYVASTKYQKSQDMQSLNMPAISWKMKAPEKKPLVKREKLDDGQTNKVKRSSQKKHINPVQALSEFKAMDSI

Molecule	Kd [1] [nM]	binding result [2]
αE-catenin (from UniProt P26231)	1	–
B1	–	binds
